The text below walks through data of US20120114652A1 (AbbVie / Abbott, published 2012).

The target of one test is T1, rat PAI-1 (rat, UniProt P20961 24-402).
T1 construct: bought (US Biological)
T1 sequence: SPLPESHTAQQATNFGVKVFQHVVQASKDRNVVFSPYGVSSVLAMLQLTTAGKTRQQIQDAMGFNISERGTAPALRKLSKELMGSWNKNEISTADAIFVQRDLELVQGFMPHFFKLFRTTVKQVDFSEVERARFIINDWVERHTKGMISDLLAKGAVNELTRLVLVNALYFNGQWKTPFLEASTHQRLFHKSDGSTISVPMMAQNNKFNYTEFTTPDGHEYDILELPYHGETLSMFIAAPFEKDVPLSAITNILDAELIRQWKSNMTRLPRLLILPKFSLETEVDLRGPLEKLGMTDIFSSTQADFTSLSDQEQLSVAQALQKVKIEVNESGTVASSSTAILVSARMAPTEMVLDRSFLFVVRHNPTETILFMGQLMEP
In words: SPR BIAcore T100, Antibody 08 on CM3 chip, PAI-1 as analyte, 25 C, n = 2.

In test [1] the target is T2, glycosylated active human PAI-1 produced by CHO cells (human, UniProt P05121 24-402, N-glycosylated (CHO-produced)).
T2 construct: also called hu glyco; human glycosylated PAI-1
In words: SPR BIAcore T100, Antibody 08 on CM3 chip, PAI-1 as analyte, 37 C, n = 2.

Test [2] addresses T3, cynomolgus PAI-1 (cynomolgus, UniProt P05121 24-402 (human entry), limits assumed).
T3 construct: bacterially derived, made in house; also called cyno PAI-1
The experiment in a line: SPR BIAcore T100, Antibody 08 on CM3 chip, PAI-1 as analyte, 37 C, n = 1.

Test [3] concerns the target T4, Y220S T267K stable mutant human PAI-1 (human, UniProt P05121 24-402).
T4 construct: His-tagged, expressed in E. coli
T4 chain: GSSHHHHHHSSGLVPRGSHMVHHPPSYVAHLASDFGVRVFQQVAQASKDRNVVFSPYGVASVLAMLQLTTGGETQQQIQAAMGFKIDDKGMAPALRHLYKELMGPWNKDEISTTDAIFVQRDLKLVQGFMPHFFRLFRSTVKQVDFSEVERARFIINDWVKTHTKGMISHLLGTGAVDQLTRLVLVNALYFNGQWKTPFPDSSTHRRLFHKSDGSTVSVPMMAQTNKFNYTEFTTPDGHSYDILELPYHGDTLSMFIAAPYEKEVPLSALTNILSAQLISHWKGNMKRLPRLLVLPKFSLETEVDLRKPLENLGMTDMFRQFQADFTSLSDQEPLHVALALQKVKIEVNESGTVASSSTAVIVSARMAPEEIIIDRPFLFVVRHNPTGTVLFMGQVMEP
In words: SPR BIAcore 2000, Antibody 08 on CM5 chip, PAI-1 protein as analyte.

Test [4] has as its target T5, R271S stable mutant human PAI-1 (human, UniProt P05121 24-402).
T5 construct: His-tagged, expressed in E. coli
T5 chain: T4 chain with S240Y, K287T, R291S
The description is as above.

For test [5], the target named is T3, cynomolgus PAI-1. The experiment in a line: SPR BIAcore T100, Antibody 08 on CM3 chip, PAI-1 as analyte, 25 C, n = 5.
The target of test [6] is T2, glycosylated active human PAI-1 …. The test is described as above.

Positions count from the first letter of the chain named.

B1: Antibody 08 (as coupled to the BIAcore chip; format not stated) (antibody, V domains shown)
VH: QVQLVQSGAEVKKPGSSVKVSCKASGGTFSSYAISWVRQAPGQGLEWMGGIIPTFGTANYAQKFQGRVTITADESTSTAYMELSSLRSEDTAVYYCARERRQWLEGHFDYWGRGTLVTVSS
VL: DIQMTQSPSTLSASVGDRVTITCRASEGIYHNLAWYQQKPGKAPKLLIYKASSLASGVPSRFSGSRSGTEFTLTISSLQPDDFATYYCQQYSNYPLTFGGGTKVEIK
notes: also called candidate antibody (Antibody 08)
Consider B1, for which the dissociation constant Kd worked out at 0.105 nM with rat PAI-1; 0.007 nM in test [1]; 0.013 nM with cynomolgus PAI-1 [2]; 0.14 nM in test [3]; 7.4 nM in test [4]; 0.013 nM in the test with cynomolgus PAI-1 [5]. The molecule also had an equilibrium dissociation constant (Kd) in test [6] of 0.006 nM.
